How the values were obtained:
[1] = biological target: HLA-B*39:01; assay: IEDB peptide-MHC binding, purified MHC/direct/fluorescence; filed as Kd, often an IC50 or EC50 that approximates it; ≥ and ≤ were set here for values at or beyond the usual limits of such assays
[2] = biological target: HLA-B*07:02; assay: as above
[3] = biological target: HLA-B*40:01; assay: as above
[4] = biological target: HLA-A*02:01; assay: as above
[5] = biological target: HLA-B*15:01; assay: as above
[6] = biological target: HLA-B*18:01; assay: as above
[7] = biological target: HLA-B*38:01; assay: as above
[8] = biological target: HLA-B*08:03; assay: as above; conditions: source organism: Ravn virus - Ravn, Kenya, 1987
[9] = biological target: HLA-B*46:01; assay: as above
[10] = biological target: HLA-B*48:01; assay: as above; conditions: source organism: Ebola virus - Mayinga, Zaire, 1976
[11] = biological target: HLA-A*01:01; assay: as above
[12] = biological target: HLA-B*57:01; assay: as above
[13] = biological target: HLA-B*58:01; assay: as above
[14] = biological target: HLA-A*26:02; assay: IEDB peptide-MHC binding, purified MHC/competitive/fluorescence; filed as Kd, often an IC50 or EC50 that approximates it; ≥ and ≤ were set here for values at or beyond the usual limits of such assays; conditions: source organism: Zaire ebolavirus
[15] = biological target: HLA-A*68:02; assay: as above
[16] = biological target: HLA-A*26:01; assay: as above
[17] = biological target: HLA-A*69:01; assay: as above; conditions: source organism: Bacillus anthracis str. A0488
[18] = biological target: HLA-A*29:02; assay: as above
[19] = biological target: HLA-A*03:01; assay: as above
[20] = biological target: HLA-A*02:01; assay: as above
[21] = biological target: HLA-B*27:03; assay: as above
[22] = biological target: HLA-B*15:01; assay: as above
[23] = biological target: HLA-B*18:01; assay: as above
[24] = biological target: HLA-B*51:01; assay: as above
[25] = biological target: HLA-B*46:01; assay: as above
[26] = biological target: HLA-A*23:01; assay: as above
[27] = biological target: HLA-A*24:03; assay: as above
[28] = biological target: HLA-B*15:17; assay: as above; conditions: source organism: Bacillus anthracis str. A0488
[29] = biological target: HLA-A*02:16; assay: as above; conditions: source organism: Bacillus anthracis str. A0488
[30] = biological target: HLA-A*02:19; assay: as above
[31] = biological target: HLA-B*57:01; assay: as above
[32] = biological target: HLA-B*39:01; assay: as above; conditions: source organism: Giardia lamblia ATCC 50803
[33] = biological target: HLA-A*02:12; assay: as above; conditions: source organism: Giardia lamblia ATCC 50803
[34] = biological target: HLA-A*69:01; assay: IEDB peptide-MHC binding, purified MHC/direct/fluorescence; filed as Kd, often an IC50 or EC50 that approximates it; ≥ and ≤ were set here for values at or beyond the usual limits of such assays; conditions: source organism: Aracatuba virus
[35] = biological target: HLA-A*26:02; assay: as above; conditions: source organism: Variola virus
[36] = biological target: HLA-A*68:02; assay: as above; conditions: source organism: Aracatuba virus
[37] = biological target: HLA-B*27:05; assay: as above; conditions: source organism: Aracatuba virus
[38] = biological target: HLA-B*08:02; assay: as above; conditions: source organism: Variola virus
[39] = biological target: HLA-B*15:17; assay: as above; conditions: source organism: Aracatuba virus
[40] = biological target: HLA-B*08:01; assay: as above; conditions: source organism: Variola virus
[41] = biological target: HLA-A*26:01; assay: as above; conditions: source organism: Variola virus
[42] = biological target: HLA-B*48:01; assay: IEDB peptide-MHC binding, purified MHC/competitive/fluorescence; filed as Kd, often an IC50 or EC50 that approximates it; ≥ and ≤ were set here for values at or beyond the usual limits of such assays; conditions: source organism: Rabbitpox virus
[43] = biological target: HLA-A*30:01; assay: as above; conditions: source organism: Rabbitpox virus
[44] = source organism: Ebola virus - Mayinga, Zaire, 1976
[45] = source organism: Zaire ebolavirus
[46] = source organism: Bacillus anthracis str. A0488
[47] = source organism: Giardia lamblia ATCC 50803
[48] = source organism: Aracatuba virus

## SRTPSGKRL
[1]; [44]
  Kd: ≥ 20 µM
[2]; [44]
  Kd: ≥ 20 µM
[3]; [44]
  Kd: ≥ 20 µM
[4]; [44]
  Kd: ≥ 20 µM
[5]; [44]
  Kd: ≥ 20 µM
[6]; [44]
  Kd: ≥ 20 µM
[7]; source organism: Ravn virus - Ravn, Kenya, 1987
  Kd: ≥ 20 µM
[8]
  Kd: ≥ 20 µM
[9]; [44]
  Kd: ≥ 20 µM
[10]
  Kd: ≥ 20 µM
[11]; [44]
  Kd: ≥ 20 µM
[12]; [44]
  Kd: ≥ 20 µM
[13]; [44]
  Kd: ≥ 20 µM
[14]
  Kd: 2.8 µM
[15]; [45]
  Kd: 3.11 µM
[16]; [45]
  Kd: 2.12 µM

## KQGDVFYTA
[17]
  Kd: ≥ 20 µM
[18]; [46]
  Kd: ≥ 20 µM
[19]; [46]
  Kd: ≥ 20 µM
[15]; [46]
  Kd: ≥ 20 µM
[20]; [46]
  Kd: ≥ 20 µM
[21]; [46]
  Kd: ≥ 20 µM
[22]; [46]
  Kd: ≥ 20 µM
[23]; [46]
  Kd: ≥ 20 µM
[24]; [46]
  Kd: ≥ 20 µM
[25]; [46]
  Kd: ≥ 20 µM
[26]; [46]
  Kd: ≥ 20 µM
[27]; [46]
  Kd: ≥ 20 µM
[28]
  Kd: ≥ 20 µM
[29]
  Kd: 0.0514 µM
[30]; [46]
  Kd: ≥ 20 µM
[31]; [46]
  Kd: ≥ 20 µM
[16]; [46]
  Kd: ≥ 20 µM

## STTTCEAGV
[32]
  Kd: ≥ 20 µM
[18]; [47]
  Kd: ≥ 20 µM
[19]; [47]
  Kd: ≥ 20 µM
[20]; [47]
  Kd: ≥ 20 µM
[21]; [47]
  Kd: ≥ 20 µM
[22]; [47]
  Kd: ≥ 20 µM
[23]; [47]
  Kd: ≥ 20 µM
[24]; [47]
  Kd: ≥ 20 µM
[25]; [47]
  Kd: ≥ 20 µM
[26]; [47]
  Kd: ≥ 20 µM
[33]
  Kd: 0.284 µM
[27]; [47]
  Kd: ≥ 20 µM
[30]; [47]
  Kd: ≥ 20 µM
[31]; [47]
  Kd: ≥ 20 µM
[16]; [47]
  Kd: ≥ 20 µM

## YKEPNSIIL
[34]
  Kd: ≥ 20 µM
[35]
  Kd: ≥ 20 µM
[1]; [48]
  Kd: 0.0305 µM
[2]; [48]
  Kd: ≥ 20 µM
[3]; [48]
  Kd: ≥ 20 µM
[36]
  Kd: ≥ 20 µM
[4]; [48]
  Kd: ≥ 20 µM
[5]; [48]
  Kd: ≥ 20 µM
[6]; [48]
  Kd: ≥ 20 µM
[7]; source organism: Variola virus
  Kd: 0.617 µM
[9]; [48]
  Kd: ≥ 20 µM
[37]
  Kd: ≥ 20 µM
[38]
  Kd: ≥ 20 µM
[39]
  Kd: ≥ 20 µM
[40]
  Kd: ≥ 20 µM
[11]; [48]
  Kd: ≥ 20 µM
[12]; [48]
  Kd: ≥ 20 µM
[41]
  Kd: ≥ 20 µM
[13]; [48]
  Kd: ≥ 20 µM
[42]
  Kd: 0.224 µM
[43]
  Kd: ≥ 20 µM
